Laboratory results from paper PMC5292662, “PKU mutation p.G46S prevents the stereospecific binding of L‐phenylalanine to the dimer of human phenylalanine hydroxylase regulatory domain” (FEBS Open Bio, 2017).
Numbering of substitutions follows the chain as printed. Names and notes keep the numbering of the source.

B1: wt‐MBP‐(pep)Xa‐hPAH‐RD^1–120 fusion protein (domain or fragment, human, UniProt P00439 1-120, looked up)
chain: MSTAVLENPGLGRKLSDFGQETSYIEDNCNQNGAISLIFSLKEEVGALAKVLRLFEENDVNLTHIESRPSRLKKDEYEFFTHLDKRSLPALTNIIKILRHDIGATVHELSRDKKKDTVPW
notes: N-terminal regulatory domain (RD) of human phenylalanine hydroxylase (hPAH), residues 1-120 (stop signal introduced in codon 121), SwissProt P00439; From pMAL‐hPAH‐RD^1–120 (pMAL-c2 vector); a factor Xa cleavage peptide (pep)Xa lies between MBP and the RD; Isolated by SEC as a dimeric and a monomeric fraction; also called MBP‐hPAH‐RD^1–120; wt‐MBP‐hPAH‐RD; source: E. coli, purified (amylose …)
B2: MBP‐hPAH‐G46S‐RD^1–120 fusion protein (domain or fragment, human, UniProt P00439 1-120, looked up)
chain: B1 chain with G46S
notes: From pMAL‐hPAH‐G46S‐RD^1–120; a factor Xa cleavage peptide lies between MBP and the RD; G46S is a mutation found in patients with phenylketonuria; also called hPAH‐G46S‐RD^1–120 dimer fusion protein; source: E. coli, purified (amylose resin, SEC); not shown: MBP, N-terminal, kept

Target: the molecule itself
Experiment: SEC; HiLoad Superdex 200 HR column (1.6 cm × 60 cm), 20 mM Na‐Hepes, 0.2 M NaCl, pH 7.0, 0.38 mL·min^−1, 4 °C; masses estimated from standard markers; dimer to monomers

Row | Protein | stoichiometry N
1 | B1 | 2
2 | B2 | 2
